B1: 14-3-3 protein sigma (Homo sapiens), P31947 (parent)
chain: MERASLIQKAKLAEQAERYEDMAAFMKGAVEKGEELSCEERNLLSVAYKNVVGGQRAAWRVLSSIEQKSNEEGSEEKGPEVREYREKVETELQGVCDTVLGLLDSHLIKEAGDAESRVFYLKMKGDYYRYLAEVATGDDKKRIIDSARSAYQEAMDISKKEMPPTNPIRLGLALNFSVFHYEIANSPEEAISLAKTTFDEAMADLHTLSEDSYKDSTLIMQLLRDNLTLWTADNAGEEGGEAPQEPQS
partner: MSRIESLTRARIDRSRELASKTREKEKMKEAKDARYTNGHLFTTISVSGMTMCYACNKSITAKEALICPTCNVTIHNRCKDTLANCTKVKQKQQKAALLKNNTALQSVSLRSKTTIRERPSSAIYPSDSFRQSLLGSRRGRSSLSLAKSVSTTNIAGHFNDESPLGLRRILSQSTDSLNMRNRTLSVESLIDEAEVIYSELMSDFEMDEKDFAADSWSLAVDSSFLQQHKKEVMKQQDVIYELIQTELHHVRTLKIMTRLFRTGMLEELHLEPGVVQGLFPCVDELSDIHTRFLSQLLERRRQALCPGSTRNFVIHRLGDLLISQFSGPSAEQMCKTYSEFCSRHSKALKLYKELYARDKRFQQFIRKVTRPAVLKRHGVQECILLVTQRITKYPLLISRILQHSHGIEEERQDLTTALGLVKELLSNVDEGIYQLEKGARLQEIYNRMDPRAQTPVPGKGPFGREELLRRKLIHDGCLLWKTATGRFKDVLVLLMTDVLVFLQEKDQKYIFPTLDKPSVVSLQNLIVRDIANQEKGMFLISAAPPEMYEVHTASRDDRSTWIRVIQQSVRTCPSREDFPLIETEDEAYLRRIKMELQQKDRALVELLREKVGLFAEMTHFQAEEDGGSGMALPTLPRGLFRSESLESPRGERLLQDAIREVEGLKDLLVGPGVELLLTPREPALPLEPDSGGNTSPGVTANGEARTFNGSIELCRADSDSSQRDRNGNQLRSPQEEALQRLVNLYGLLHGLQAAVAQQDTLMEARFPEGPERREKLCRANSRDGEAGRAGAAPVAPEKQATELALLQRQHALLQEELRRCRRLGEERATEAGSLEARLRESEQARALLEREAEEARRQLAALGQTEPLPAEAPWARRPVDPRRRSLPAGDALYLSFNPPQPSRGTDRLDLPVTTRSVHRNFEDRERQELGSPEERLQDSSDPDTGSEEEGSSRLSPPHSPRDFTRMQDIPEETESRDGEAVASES
B2: 14-3-3 protein sigma (Homo sapiens), P31947 (parent)
chain: B1 chain
partner: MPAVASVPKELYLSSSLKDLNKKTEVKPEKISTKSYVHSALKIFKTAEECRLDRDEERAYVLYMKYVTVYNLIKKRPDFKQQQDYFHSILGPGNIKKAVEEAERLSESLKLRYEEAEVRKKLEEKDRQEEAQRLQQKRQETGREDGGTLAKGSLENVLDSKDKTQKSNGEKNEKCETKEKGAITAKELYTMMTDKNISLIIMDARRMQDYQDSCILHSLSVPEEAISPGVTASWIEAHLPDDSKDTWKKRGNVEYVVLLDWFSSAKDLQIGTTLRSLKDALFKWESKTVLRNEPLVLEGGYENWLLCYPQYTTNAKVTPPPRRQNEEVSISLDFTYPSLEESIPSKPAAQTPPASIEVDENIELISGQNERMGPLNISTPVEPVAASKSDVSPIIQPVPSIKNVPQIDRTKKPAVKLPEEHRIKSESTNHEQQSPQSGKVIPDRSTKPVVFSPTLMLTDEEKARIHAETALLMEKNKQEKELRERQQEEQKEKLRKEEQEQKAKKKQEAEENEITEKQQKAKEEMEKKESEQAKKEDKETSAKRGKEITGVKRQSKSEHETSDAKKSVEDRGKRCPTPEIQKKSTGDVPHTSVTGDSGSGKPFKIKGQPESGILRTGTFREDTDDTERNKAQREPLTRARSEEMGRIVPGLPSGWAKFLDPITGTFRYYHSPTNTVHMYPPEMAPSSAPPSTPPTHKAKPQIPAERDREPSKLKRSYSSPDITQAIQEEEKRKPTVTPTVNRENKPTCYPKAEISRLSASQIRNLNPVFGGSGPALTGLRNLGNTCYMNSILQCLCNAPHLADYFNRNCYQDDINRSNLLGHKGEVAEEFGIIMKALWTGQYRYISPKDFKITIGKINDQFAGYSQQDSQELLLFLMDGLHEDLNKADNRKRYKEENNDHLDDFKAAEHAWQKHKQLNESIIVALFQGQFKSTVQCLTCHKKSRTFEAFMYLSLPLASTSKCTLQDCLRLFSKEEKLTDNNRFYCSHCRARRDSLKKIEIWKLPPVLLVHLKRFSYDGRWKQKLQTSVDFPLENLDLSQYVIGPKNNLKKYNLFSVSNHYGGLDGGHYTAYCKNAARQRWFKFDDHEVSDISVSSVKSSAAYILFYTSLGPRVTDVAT
B3: Serine/threonine-protein kinase PAK 5 (Homo sapiens), Q9P286 (parent)
chain: MFGKKKKKIEISGPSNFEHRVHTGFDPQEQKFTGLPQQWHSLLADTANRPKPMVDPSCITPIQLAPMKTIVRGNKPCKETSINGLLEDFDNISVTRSNSLRKESPPTPDQGASSHGPGHAEENGFITFSQYSSESDTTADYTTEKYREKSLYGDDLDPYYRGSHAAKQNGHVMKMKHGEAYYSEVKPLKSDFARFSADYHSHLDSLSKPSEYSDLKWEYQRASSSSPLDYSFQFTPSRTAGTSGCSKESLAYSESEWGPSLDDYDRRPKSSYLNQTSPQPTMRQRSRSGSGLQEPMMPFGASAFKTHPQGHSYNSYTYPRLSEPTMCIPKVDYDRAQMVLSPPLSGSDTYPRGPAKLPQSQSKSGYSSSSHQYPSGYHKATLYHHPSLQSSSQYISTASYLSSLSLSSSTYPPPSWGSSSDQQPSRVSHEQFRAALQLVVSPGDPREYLANFIKIGEGSTGIVCIATEKHTGKQVAVKKMDLRKQQRRELLFNEVVIMRDYHHDNVVDMYSSYLVGDELWVVMEFLEGGALTDIVTHTRMNEEQIATVCLSVLRALSYLHNQGVIHRDIKSDSILLTSDGRIKLSDFGFCAQVSKEVPKRKSLVGTPYWMAPEVISRLPYGTEVDIWSLGIMVIEMIDGEPPYFNEPPLQAMRRIRDSLPPRVKDLHKVSSVLRGFLDLMLVREPSQRATAQELLGHPFLKLAGPPSCIVPLMRQYRHH
partner: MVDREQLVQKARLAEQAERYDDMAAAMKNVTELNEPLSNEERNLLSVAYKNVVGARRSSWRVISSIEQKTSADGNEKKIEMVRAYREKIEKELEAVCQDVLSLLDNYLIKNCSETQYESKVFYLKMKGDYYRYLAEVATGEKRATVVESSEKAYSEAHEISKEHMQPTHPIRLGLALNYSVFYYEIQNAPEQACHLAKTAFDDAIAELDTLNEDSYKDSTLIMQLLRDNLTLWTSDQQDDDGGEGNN

Variants of: B1
Conditions: with arhg2_human ARHGEF2, Q92974

Variant	effect of a mutation on the interaction
MERASLIQKAKLAEQAERYEDMAAFMKGAVEKGEELSCEERNLLSVAYENVVGGQEAAWRVLSSIEQKSNEEGSEEKGPEVREYREKVETELQGVCDTVLGLLDSHLIKEAGDAESRVFYLKMKGDYYRYLAEVATGDDKKRIIDSARSAYQEAMDISKKEMPPTNPIRLGLALNFSDFHYEIANSPEEAISLAKTTFDEAMADLHTLSEDSYKDSTLIMQLLRDNLTLWTADNAGEEGGEAPQEPQS [K49E;R56E;V178D]	decreasing interaction strength

Variants of: B2
Conditions: with ubp8_human USP8, P40818

Variant	effect of a mutation on the interaction
MERASLIQKAKLAEQAERYEDMAAFMKGAVEKGEELSCEERNLLSVAYENVVGGQEAAWRVLSSIEQKSNEEGSEEKGPEVREYREKVETELQGVCDTVLGLLDSHLIKEAGDAESRVFYLKMKGDYYRYLAEVATGDDKKRIIDSARSAYQEAMDISKKEMPPTNPIRLGLALNFSDFHYEIANSPEEAISLAKTTFDEAMADLHTLSEDSYKDSTLIMQLLRDNLTLWTADNAGEEGGEAPQEPQS [K49E;R56E;V178D]	decreasing interaction strength

Variants of: B3
Conditions: with 1433g_human YWHAG

Variant	effect of a mutation on the interaction
S99A;S270A;S290A;T317A;T349A	decreasing interaction strength

— IntAct's records for PubMed 36931259
